The record followed here is paper PMC10567725, “Structure of full-length cobalamin-dependent methionine synthase and cofactor loading captured in crystallo” (Nature Communications, 2023).

Holding throughout (experiment): purified protein
Substrate in data set [1]: CN1c2c(nc(N)[nH]c2=O)NC[C@@H]1CNc1ccc(C(=O)N[C@@H](CCC(=O)O)C(=O)O)cc1
The note with it: 100 µM homocysteine, SAM, aquacobalamin, DTT, pH 7.2, 50 °C, holo-tMS (MeCbl), pH 7.2.

Substrate in data set [2]: C[S+](CC[C@H](N)C(=O)O)C[C@H]1O[C@@H](n2cnc3c(N)ncnc32)[C@H](O)[C@@H]1O
The conditions noted are these: 1.25 mM DL-homocysteine, 104 µM (6S)-methyltetrahydrofolate, 50 °C, holo-tMS, reactivation (reductive methylation of cob(II)alamin).

Substrate in data set [3]: NC(CCS)C(=O)O
It is filed as biochemical, Thermus thermophilus. The note with it: 250 µM CH3-H4folate, SAM, aquacobalamin, DTT, pH 7.2, 50 °C, holo-tMS, DL-homocysteine varied.

B1: tMS (full-length cobalamin-dependent methionine synthase) (Thermus thermophilus HB8) (protein)
chain: MVEVHACSPGCRHHLGGAGWGDAPLVRLGYNKEARAKKFPYLKALLERPLVFDGAMGTELQKRDLTPEDYGGEAYFGCPEVLNRTRPEVVREIHLAYLEAGAEVIETNTFGALRHVLAEYGLEEAAEELAFLGARIAREAADPHGAFVAGALGPGTKLVSLGQISWDALYRAYKEAARGLLKGGVDLILLETAQDILQVRCAVLAVREAMAEVGREVPLQVQVTFEATGTMLVGTDEQAALAALESLPVDVVGMNCATGPDLMDSKVRYFAEHSTRFVSCLPNAGLPRNEGGRVVYDLTPEELAKWHLKFVAEYGVNAVGGCCGTGPEHIRKVAEAVKGLAPKPRPESFPPQVASLYQAVSLKQEASLFLVGERLNATGSKRFREMLFARDLEGILALAREQVEEGAHALDLSVAWTGRDELEDLRWLLPHLATALTVPVMVDSTSPEAMELALKYLPGRVLLNSANLEDGLERFDRVASLAKAHGAALVVLAIDEKGMAKTREEKVRVALRMYERLTEHHGLRPEDLLFDLLTFPITQGDEESRPLAKETLLAMEELRERLPGVGFVLGVSNVSFGLKPRARRVLNSVFLDEARKRGLTAAIVDAGKILPISQIPEEAYALALDLIYDRRKEGFDPLLAFMAYFEAHKEDPGKREDAFLALPLLERLKRRVVEGRKQGLEADLEEALKAGHKPLDLINGPLLAGMKEVGDLFGAGKMQLPFVLQAAEVMKRAVAYLEPHMEKKGEGKGTLVLATVKGDVHDIGKNLVDIILSNNGYRVVNLGIKVPIEEILKAVEAHKPHAVGMSGLLVKSTLVMKENLEYMRDRGYTLPVILGGAALTRSYVEELRAIYPNVYYAEDAFEGLRLMEELTGHAPPELTRKAPARPKREAPKVAPRARPVGEAPAVPRPPFFGVRVEEGLDLATIAHYVNKLALYRGQWGYSRKGLSREAWQALVEREAEPVFQRLLKEAMAEGWLEPKVLYGFFPVAREGEELLVFSPETGEVLERFRFPRQKGGGLSLVDYFRPRFAAPLGDEADWMPKEAFRAGARDVLGVQLVTMGEAPSRKAQALFASGAYQDYLFVHGFSVEMTEALAEYWHKRMRQMWGIAHQDATEIQKLFQQGYQGARYSFGYPACPDLADQAKLDRLMGFHRVGVRLTENFQLEPEHATSALVVHHPEARYFSVD
notes: full-length wild type, five modules Hcy:Fol:Cap:Cob:Act, N-terminal His tag with TEV site (cut), E. coli BL21star(DE3); holoenzyme reconstituted with MeCbl; 132 kDa
Turning to B1, the Km in the data set “purified protein [1]” was determined as 18 ± 4.1 µM; in the data set “purified protein [2]”, 1.0 ± 0.1 µM; in the data set “purified protein [3]”, 9.3 ± 3.1 µM.

In general, Km refers to the concentration of substrate that gives half-maximal velocity.
